Assay results from patent US20150004189A1.
Positions count from the first letter of the chain named.

What was measured:
[1] = target: T1, HLA DP molecule DPB1*0401 (human); assay: inhibition of radiolabeled peptide binding to purified HLA DP
T1 chain 1: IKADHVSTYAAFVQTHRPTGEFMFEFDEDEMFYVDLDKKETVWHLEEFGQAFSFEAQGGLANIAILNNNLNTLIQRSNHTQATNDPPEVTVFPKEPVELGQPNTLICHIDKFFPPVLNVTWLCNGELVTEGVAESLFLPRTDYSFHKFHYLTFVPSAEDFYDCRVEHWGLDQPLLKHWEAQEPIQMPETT
T1 chain 2: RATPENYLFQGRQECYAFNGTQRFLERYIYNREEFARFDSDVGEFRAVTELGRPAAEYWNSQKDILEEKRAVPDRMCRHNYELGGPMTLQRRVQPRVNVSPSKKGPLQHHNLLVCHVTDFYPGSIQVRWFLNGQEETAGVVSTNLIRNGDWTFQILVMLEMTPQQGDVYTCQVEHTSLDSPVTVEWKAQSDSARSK

[2] = target: HLA-DR molecules on the donors' cells (locus; alleles not stated); assay: cell-based or functional assay
[3] = target: T2, HLA-DQ molecule DQB1*0501 (human); assay: competition: inhibition of radiolabeled peptide binding to purified HLA
T2 chain 1: not shown
T2 chain 2: not shown

HLA-DR DRB1*0301 (human) = target: T3, HLA-DR DRB1*0301 (human); assay: inhibition of radiolabeled peptide binding to purified HLA class II; settings: remark: other sources report otherwise
T3 chain 1: not shown
T3 chain 2: not shown

[4] = target: HLA DQ molecule DQB1*0202 (human); assay: as above
[5] = target: HLA DQ molecule DQB1*0602 (human); assay: as above
[6] = target: T4, HLA DQ molecule DQB1*0402 (human), P01909; assay: as above
T4 chain 1: not shown
T4 chain 2: not shown

[7] = target: HLA DQ molecule DQB1*0502 (human); assay: as above
[8] = target: HLA DQ molecule DQB1*0503 (human); assay: as above
[9] = target: T5, HLA DP molecule DPB1*0201 (human); assay: competition vs radiolabeled peptide, purified HLA-DP
T5 chain 1: T1 chain 1
T5 chain 2: T1 chain 2 with A36V, A55D, A56E, K69E

[10] = target: T1, HLA DP molecule DPB1*0401 (human); assay: as above

KVSDDITYVATATLP (modifications not checked) [Alt a 1 peptide, position 111 (Peptide ID 3324.0013)]
IC50 [1]: 1.61 µM

DGVWEIKSDKPLKGPFNFRF (peptide, UniProt P14947 51-70, looked up) [Lol p 2 (51-70) epitope region, Rye Grass]
Region restriction(s) DR (ELISPOT response inhibited by locus-specific mAb) [2]: 3 donors

AAAGLAAAAPLESRQ (modifications not checked) [Alt a 1 peptide, position 11, Peptide ID 3324.0017]
IC50 [3]: 50 µM

IASLFAAAGLAAAAP (modifications not checked) [Alt a 1 peptide, position 6, Peptide ID 3324.0015]
IC50 (HLA-DR DRB1*0301 (human)): 32.1 µM

LDLAVNAAVDAGIHF (modifications not checked) [Pen ch 18 (291-305) peptide …, Peptide ID 3324.1331]
IC50 [4]: 0.361 µM
IC50 [5]: 0.48 µM

GSDEKNLALSIKYNKEGDSM (peptide, UniProt Q41183 11-30, looked up) [Dac g 2 (11-30) epitope region, Orchard Grass]
Region restriction(s) DR (ELISPOT response inhibited by locus-specific mAb) [2]: 1 donors

GIFLSVAAGNEAENA (modifications not checked) [Pen ch 13 (271-285) peptide …, Peptide ID 3324.1303]
IC50 [6]: 0.102 µM
IC50 [7]: 50 µM
IC50 [8]: 50 µM

VADAYITLVTLPKSS (modifications not checked) [Alt a 1 peptide, position 143 (Peptide ID 3324.0016)]
IC50 [1]: 2.5 µM

ITYVATATLPNYCRA (modifications not checked) [Alt a 1 peptide, position 116 (Peptide ID 3324.0014)]
IC50 [1]: 2.99 µM

LDLAVNAAVDAGIHF (modifications not checked) [Pen ch 18 peptide, position 291, … (Peptide ID 3324.1331)]
IC50 [9]: 5.05 µM
IC50 [10]: 9.18 µM
